± gives the half width of the 95% confidence interval.
Columns and labels:
[1] = folding stability dG unfold from trypsin proteolysis; higher = more stable
In short: (§1)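 Digests were run with trypsin and chymotrypsin at 11 concentrations in threefold dilutions, plus a no-protease condition, on designed mini-proteins in a PA-tagged cDNA display construct. The mini-proteins were under 80 residues, had no cysteine, and were kept only when AlphaFold2 dimer inter-PAE was above 15. After sequencing, Bayesian fitting of the counts gave K50, from which unfolding free energy was derived against a sequence-predicted unfolded-state K50 and a shared folded-state K50, per protease or combined.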

[2] = folding stability dG unfold from chymotrypsin proteolysis; higher = more stable
In short: as §1

[3] = folding stability dG unfold (combined trypsin and chymotrypsin); higher = more stable
In short: as §1

Sequence	folding stability dG unfold [1] [kcal/mol]	folding stability dG unfold [2] [kcal/mol]	folding stability dG unfold [3] [kcal/mol]
SAGGSAGGSKITVERNEDGELFVRITFKDGKTITIKAKSVEELKEKLKELGFDVKVEVVERKPSAGGSAGGS [r20_124_TrROS_Hall]	2.74 ± 0.084	4.58 ± 0.071	4.18 ± 0.087
SAGGSAGGSKITVHRNPPGYYVIRIHGPGPITIMIPPKDADELANKLKDLGFDMKVEVYPLDDSAGGSAGGS [r20_124_TrROS]	1.23 ± 0.028	1.05 ± 0.1	1.1 ± 0.11
SAGGSAGGSKKDPEDNPEQAKPPIPPIRVEIYPPDGQPETFEFHSLEEITEWIQERGYTVKIESAGGSAGGS [r12_244_TrROS]	0.668 ± 0.022	1.12 ± 0.051	0.974 ± 0.065
SAGGSAGGSKKIKITVVVPKEEAEKLLKELEKAGYKIVSVEKKEIPENELVVIEIVIEKPEELSAGGSAGGS [r12_445_TrROS_Hall]	3.09 ± 0.14	4.13 ± 0.24	3.65 ± 0.31
SAGGSAGGSKKKIKVIIEVEVNGKKYKIEVEAETEEEAKKKAEEAIKELKKKFPNVKIKKIKPSAGGSAGGS [r12_230_TrROS_Hall]	2.38 ± 0.13	4.08 ± 0.25	3.51 ± 0.26
SAGGSAGGSKKKKKKKKKIKVLIRNKKTGKWFEAEAEVVDGELYIKVNGKIYKIKGPVEIELVSAGGSAGGS [r12_683_TrROS_Hall]	2.38 ± 0.043	3.686 ± 0.019	3.3 ± 0.048
SAGGSAGGSKKKKVIEIKISEEELKKLGLTKEEIAKKLAEKFPNIKKNVRIEKNKDGTLKIYVSAGGSAGGS [r12_50_TrROS_Hall]	1.22 ± 0.072	1.27 ± 0.092	1.18 ± 0.31
SAGGSAGGSKKKLKLVIKLKKGEKAPTAEELKKKLEELGFEIKDIKVVEKDGELYVVLEIELKSAGGSAGGS [r12_1052_TrROS_Hall]	2.67 ± 0.35	3.4 ± 0.14	3.24 ± 0.32
SAGGSAGGSKKKNKPAPPVLVVKVEIVKIELSDEELEAIKKNKEKIKEIYLIKIEVTLVEPEESAGGSAGGS [r12_196_TrROS_Hall]	1.17 ± 0.11	2.18 ± 0.062	1.94 ± 0.14
SAGGSAGGSKKKTVEEILKELKKKKNKIIKIKYKDGSTYYINIKTGKIIKLKNIKNVKIEILPSAGGSAGGS [r20_44_TrROS_Hall]	2.73 ± 0.14	4.44 ± 0.1	3.55 ± 0.32
SAGGSAGGSKKKVTINIVLTVKPGETLTLTVEITIDGKKYKVTKTLTYDPKTNKLVLTATVEPSAGGSAGGS [r12_136_TrROS_Hall]	3.78 ± 0.32	5.03 ± 0.24	5.03 ± 0.29
SAGGSAGGSKKKYTVEELLKKLKPGDIALVKINGKWREVSVEELKKLPPGAEVEVEVFKLKPPSAGGSAGGS [r12_501_TrROS_Hall]	2.84 ± 0.11	3.51 ± 0.072	3.34 ± 0.16
SAGGSAGGSKKPKITITIEILVKNEDGKLYLFRIEIEINENGEISIKMEIFELKDIKPGDILLSAGGSAGGS [r12_38_TrROS_Hall]	2.63 ± 0.19	3.94 ± 0.13	3.56 ± 0.38
SAGGSAGGSKKPPIYKIEIEIDGKKLTIEAKSKEEALKALKEELKKKYPNLKITKIKIEKVKPSAGGSAGGS [r12_429_TrROS_Hall]	1.52 ± 0.088	2.4 ± 0.14	2.14 ± 0.15
SAGGSAGGSKKPVLAKIAILNSGSPEVAEELAKRLAAELGLSPDEVKVELHVIPVTAPGELLFSAGGSAGGS [r12_1066_TrMRF]	0.465 ± 0.02	0.328 ± 0.063	0.416 ± 0.043
SAGGSAGGSKKVEVEILLLLPESTTEEEAKALAEELAEKIKEATPADDVEVKVVILKVPKNALSAGGSAGGS [r12_522_TrMRF]	2 ± 0.12	1.89 ± 0.048	1.92 ± 0.21
SAGGSAGGSKKVKEVTITVKNKDGKTVKITKIYKKKDGSKYVLIKDKKTKKTYKISLEDLKKLSAGGSAGGS [r12_488_TrROS_Hall]	1.11 ± 0.05	2.29 ± 0.076	1.8 ± 0.14
SAGGSAGGSKKVKIIEIDLKDMSPEEILELIKKEKVDAIIIKSDTPEAKRLAEKLKEAGFKVISAGGSAGGS [r12_610_TrROS_Hall]	1.46 ± 0.043	2.36 ± 0.055	2.05 ± 0.059
SAGGSAGGSKLEEILKKLPPNAKITIEKDEETNVYTITITNKNGEKYTFTFSKEEVKKLLEKLSAGGSAGGS [r12_174_TrROS_Hall]	3.13 ± 0.19	4.76 ± 0.24	4.62 ± 0.22
SAGGSAGGSKLGVFEVGGKRYAVKVTDKNGKELTLAIPPELLKKLPKNLKVEVKEVKPGEPIPSAGGSAGGS [r12_419_TrMRF]	0.218 ± 0.16	0.738 ± 0.23	0.635 ± 0.15
